How the values were obtained:
PARP1-Flag = assay: proximity ligation; MiaPaCa-2 cells transfected with PARP1-Flag; mouse anti-Flag and rabbit anti-NUPR1 antibodies; untreated or 24 h with ZZW-115 1.5 uM, 5-FU 10 uM, olaparib 25 uM or 5-FU + olaparib; foci counted with ImageJ

B1: recombinant wild-type NUPR1 (natural protein)
chain: MATFPPATSAPQQPPGPEDEDSSLDESDLYSLAHSYLGGGGRKGRTKREAAANTNRPSPGGHERKLVTKLQNSERKKRGARR
Binder B1 has an inhibition of PARP1 enzymatic activity in an acellular PARP1 activity assay with 2 and 4 µM rNUPR1 (26.5% at 2 µM, 48.4% at 4 µM) (recombinant PARP1) of 48.4%.

B2: NUPR1 (detected with the anti-NUPR1 antibody in MiaPaCa-2 cells) (natural protein)
chain: MATFPPATSAPQQPPGPEDEDSSLDESDLYSLAHSYLGGGGRKGRTKREAAANTNRPSPGGHERKLVTKLQNSERKKRGARR
B2 gave a PLA foci/cell (cells treated with 5-FU) (PARP1-Flag) of 94.7 foci/cell, a PLA foci/cell (cells treated with ZZW-115) (PARP1-Flag) of 12.5 foci/cell and a PLA foci/cell (control condition) (PARP1-Flag) of 59.5 foci/cell.

Source: publication PMC9307593
